Measured values published in patent publication US20190352354A1.

Target: commercial Trail (TNF-related apoptosis-inducing ligand, TRAIL) (UniProt P50591)
Assay: cell-based or functional assay

commercial DR5-Fc fusion protein (R&D Systems), sequence (O14763 52-182): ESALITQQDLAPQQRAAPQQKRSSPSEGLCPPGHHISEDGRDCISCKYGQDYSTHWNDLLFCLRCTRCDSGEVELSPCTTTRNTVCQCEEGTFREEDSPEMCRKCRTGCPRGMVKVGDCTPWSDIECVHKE
commercial Trail (TNF-related apoptosis-inducing ligand, TRAIL), sequence (P50591 114-281 limits assumed): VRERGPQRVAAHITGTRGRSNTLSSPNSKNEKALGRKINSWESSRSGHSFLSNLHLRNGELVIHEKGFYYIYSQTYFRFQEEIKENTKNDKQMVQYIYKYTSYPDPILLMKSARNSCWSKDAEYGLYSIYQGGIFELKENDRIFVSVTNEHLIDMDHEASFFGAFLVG

- EC50 of blocking TRAIL-induced apoptosis of HepG2 cells: 0.0276 µg/mL
Substance: commercial DR5-Fc fusion protein (R&D Systems) (from UniProt O14763 52-182)
- EC50 of blocking Trail (at EC90) killing of Jurkat cells, MTS/PMS A490-A630: 0.0718 µg/mL
